Reference: paper PMC3858276, “Completion of Proteomic Data Sets by Kd Measurement Using Cell-Free Synthesis of Site-Specifically Labeled Proteins” (PLoS ONE, 2013)
Where no end group is shown, it is not given here.

B1: phosphorylated SNAP-ADAP fusion protein (ADAP amino acids 570-690) (domain or fragment, human, UniProt O15117 570-690, looked up)
chain: DYDSLKLKKDSLGAPSRPIEDDQEVYDDVAEQDDISSHSQSGSGGIFPPPPDDDIYDGIEEEDADDGFPAPPKQLDMGDEVYDDVDTSDFPVSSAEMSQGTNVGKAKTEEKDLKKLKKQEK
modifications: phosphotyrosine (in vitro phosphorylation by Fyn kinase, approx. 90% of each phosphorylation site; sites in Table S1); BG-647 dye on the SNAP-tag
notes: adhesion and degranulation promoting adapter protein (ADAP), human, section 570-690; Cloned into the SNAP-tag vector pSET7-26b (NEB) via BamHI, XhoI; also called ADAP-P; phosphorylated ADAP; not shown: SNAP-tag, N-terminal, kept

What was measured:
Settings in all cases: one partner purified
[1] = target: T1, Rasa1b (Rasa1 sequence 174-447) without biotin (for MST) (UniProt P20936 174-447); assay: MST; SH2 proteins (only partly purified) serially diluted in 1x PBS with 1.75% (v/v) E. coli extract; fluorescent ADAP at 12 nM; 5 min at RT; Monolith NT.115
T1 construct: same linear template as m11, cloned into pIX3.0; source: cell-free (RTS500 PM HY kit, plasmid pIX3.0), partly purified by buffer exchange to PBS and ultracentrifugation
T1 sequence (looked up): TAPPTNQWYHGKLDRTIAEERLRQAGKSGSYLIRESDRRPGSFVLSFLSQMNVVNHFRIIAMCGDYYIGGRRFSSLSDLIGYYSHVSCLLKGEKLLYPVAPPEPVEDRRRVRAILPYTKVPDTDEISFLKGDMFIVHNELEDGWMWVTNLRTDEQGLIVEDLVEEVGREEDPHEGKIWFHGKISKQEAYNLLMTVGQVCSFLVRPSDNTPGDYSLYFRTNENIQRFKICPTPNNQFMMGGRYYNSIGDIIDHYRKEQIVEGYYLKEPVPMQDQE

[2] = target: B1; assay: as above
[3] = target: T2, Src SH2 domain without biotin (for MST) (UniProt P12931 151-248); assay: MST; as for ADAP, with the fluorescent YEEI fusion and 0.05% Tween-20 (v/v) added to the interaction buffer; SH2 proteins (only partly purified) serially diluted
T2 construct: Src, SH2 domain; same linear template as m6, cloned into pIX3.0; source: cell-free (RTS500 PM HY kit, plasmid pIX3.0), partly purified by buffer exchange to PBS and ultracentrifugation

Binder	Kd [2] [µM]	further results
B1	–	Kd [1]: ~0.1 µM
Lck SH2 domain without biotin (for MST) (domain or fragment, UniProt P06239 127-224, looked up, Lck, SH2 domain; same linear template as m8, cloned into pIX3.0; source: cell-free (RTS500 PM HY kit, plasmid pIX3.0), partly purified by buffer exchange to PBS and ultracentrifugation) WFFKNLSRKDAERQLLAPGNTHGSFLIRESESTAGSFSLSVRDFDQNQGEVVKHYKIRNLDNGGFYISPRITFPGLHELVRHYTNASDGLCTRLSRPC	~1	–
SLP-76 SH2 domain without biotin (for MST) (domain or fragment, UniProt Q13094 422-530, looked up, SLP-76; same linear template as m10, cloned into pIX3.0; source: cell-free (RTS500 PM HY kit, plasmid pIX3.0), partly purified by buffer exchange to PBS and ultracentrifugation) WYVSYITRPEAEAALRKINQDGTFLVRDSSKKTTTNPYVLMVLYKDKVYNIQIRYQKESQVYLLGTGLRGKEDFLSVSDIIDYFRKMPLLLIDGKNRGSRYQCTLTHAA	~0.4	–
SH2D1A without biotin (for MST) (natural protein, UniProt O60880 1-128, looked up, SH2D1A; same linear template as m7, cloned into pIX3.0; source: cell-free (RTS500 PM HY kit, plasmid pIX3.0), partly purified by buffer exchange to PBS and ultracentrifugation) MDAVAVYHGKISRETGEKLLLATGLDGSYLLRDSESVPGVYCLCVLYHGYIYTYRVSQTETGSWSAETAPGVHKRYFRKIKNLISAFQKPDQGIVIPLQYPVEKKSSARSTQGTTGIREDPDVCLKAP	–	fold weaker binding than the SH2 domains of Src, Lck and Fyn [2]: 6 fold
RasaN (N-terminal SH2 domain of Rasa1) without biotin (for MST) (domain or fragment, UniProt P20936 181-272, looked up, Rasa1, isolated N-terminal SH2 domain; same linear template as m17, cloned into pIX3.0; source: cell-free (RTS500 PM HY kit, plasmid pIX3.0), partly purified by buffer exchange to PBS and ultracentrifugation) WYHGKLDRTIAEERLRQAGKSGSYLIRESDRRPGSFVLSFLSQMNVVNHFRIIAMCGDYYIGGRRFSSLSDLIGYYSHVSCLLKGEKLLYPV	~0.1	–
THQEEEEPQYEEIPIYL (not fully specified; also: tyrosine phosphorylation in vitro by Fyn, degree not placed, Middle T antigen of Hamster Polyomavirus, aa 315-331 with the Y324EEI motif; also called phosphorylated YEEI; YEEI fusion construct; not shown: SNAP-tag, N-terminal, kept) [phosphorylated SNAP-YEEI fusion (middle T antigen aa 315-331)]	–	Kd [3]: ~0.515 µM
